Results on four molecules are retold here after patent publication US20100292104A1 (LAWRENCE LIVERMORE NATIONAL SECURITY, published 2010).

B1: DnaE C-intein polypeptide photocaged at Gly11 (peptide)
peptide: not shown
modifications: Gly11 backbone amide caged with nitroveratryl (1,2-dimethoxy-4-methyl-3-nitro-benzyl) group; C-terminal PEGylated thiol linker; Cys37 protected as S-tBu during synthesis
B2: DnaE C-intein polypeptide photocaged at Gly6 (peptide)
peptide: not shown
modifications: Gly6 backbone amide caged with nitroveratryl (1,2-dimethoxy-4-methyl-3-nitro-benzyl) group; C-terminal PEGylated thiol linker; Cys37 protected as S-tBu during synthesis
B3: DnaE C-intein polypeptide photocaged at Gly19 (peptide)
peptide: not shown
modifications: Gly19 backbone amide caged with nitroveratryl (1,2-dimethoxy-4-methyl-3-nitro-benzyl) group; C-terminal PEGylated thiol linker; Cys37 protected as S-tBu during synthesis
B4: DnaE C-intein polypeptide photocaged at Gly31 (peptide)
peptide: not shown
modifications: Gly31 backbone amide caged with nitroveratryl (1,2-dimethoxy-4-methyl-3-nitro-benzyl) group; C-terminal PEGylated thiol linker; Cys37 protected as S-tBu during synthesis

This test deals with Maltose Binding Protein (MBP)-N-intein fusion protein (Synechocystis sp. PCC6803, UniProt P74750 771-897). Kind of test: cell-based or functional assay.
On to B1, for which the “trans-splicing activity relative to the non-photocaged C-intein polypeptide” value was roughly 60%.
The figure for B2 is roughly 30%; for B3 it is roughly 30%; for B4 it is 10%.
